Assay results published in the DeepSol protein solubility set.

Assay: soluble on expression in E. coli; label from the status in PepcDB or PDB records

With “EMRNLGGGEILHACPQESLDKPLPCIVFYHGFTSSKLVYSYFAVALAEAGFRVIMPDAPEHGARYQGDEAGRMQRFWPILQQNFREFPALREAIIAEGWLEGERLAVAGASMGGMTALGIMTHHPELNSVACLMGSGYFRSLSQTLFPSPDFDVDSLNEWDVSHQLASLARRPLLLWHGDADDVVPPEETFRLEQALRQGDLAARLTCVWQKGVRHRITPEALATTVAFFQQHL” as the sequence, how does the “soluble on expression in E. coli” value read?
Its value is “not soluble”.

For “ENLYFQGMKPIHVGLLGLGTVGGGTLTVLRRNAEEITRRAGREIRVVRAAVRNLDKAEALAGGLPLTTNPFDVVDDPEIDIVVELIGGLEPARELVMQAIANGKHVVTANKHLVAKYGNEIFAAAQAKGVMVTFEAAVAGGIPIIKALREGLTANRIEWLAGIINGTSNFILSEMRDKGAAFDDVLKEAQRLGYAEADPTFDIEGIDAAHKLTILSAIAFGIPMQFERAYTEGISQLTREDVRYAEELGYRIKLLGIARRAENGIELRVHPTLIPERRLIANVDGAMNAVLVKGDAVGPTLYYGAGAGSEPTASAVVADLVDVTRLHTADPHHRVPHLAFQPDQLADTPILPMEAVRTAYYLRLRAFDRPGVLADITRILADSSISIDAMVQKEPAEGEEQVDIILLTHVTLEKNVNAAIAKIEALDAVAGKVMRIRLEDLGAK”, which “soluble on expression in E. coli” value is on record?
The value was “soluble”.

For “EQSSSEIKIVRDEYGMPHIYANDTWHLFYGYGYVVAQDRLFQMEMARRSTQGTVAEVLGKDFVKFDKDIRRNYWPDAIRAQIAALSPEDMSILQGYADGMNAWIDKVNTNPETLLPKQFNTFGFTPKRWEPFDVAMIFVGTMANRFSDSTSEIDNLALLTALKDKYGVSQGMAVFNQLKWLVNPSAPTTIAVQESNYPLKFNQQNSQTAALLPRYDLPAPMLDRPAKGADGALLALAAGKNRETIAAQFAQGGANGLAGY”, which “soluble on expression in E. coli” value is on record?
Its value is “soluble”.

For “EQTALKKVAEMARLADSYVSAWGDEAKVSDETLRRLLTSLGYDTSSDEKLLASAEKKHKKDVLAPVLVLRDGEPVEVELNLGTSARESEFSWRLETEQGEVLEGYLQSQIVRDERAEGGPLVFALPKNLAWGYHKLIISRKRRKTPYEMSLIITPKACFKQEDLNQ”, which “soluble on expression in E. coli” value is on record?
The value was “not soluble”.

For “ERNKVESTLLDKVLFLETLVDTIPAPVFYKDREGIYRGCNDLFAKMILGIPKEKVAGCSIDEFLEKIPQELGNVYKRTDRQLLQRGGSLIYESRIMCSDGLLRQFLINKAAYRNLNGDMEGLVGVMLDIT”, which “soluble on expression in E. coli” value is on record?
The value was “not soluble”.

With “ETAADNAAYWSIATTMRSDNSALSAVQDALGLGAAKVDTAYDALESTIEVVKQIKAKLVAAYGVGADRGKIQDEIKQLQEQLKSISESASFSGENWLQASISNSGTPPVAESITKKVVASFTRTGSGNVGVTTVDYTLDSSTVLFDLSGGKLGILDKNAVFVSKTETEVMQTSTTAGKTSQAGYVVEKLSDAQIGALNATTTDTNTDPNLYSNGTDNYLRLAENVWVKATATNPSSGGTTVSPAYRDTGSTDWFYDVSAGTASANRSLGFSVSTLDLGNLDVVAAAMGGFAGGGTTYTGADAIDMMMSFVDKQLEAMTSTASSLGSLQSRISMQENFVSSLMDVIDKGVGRLV” as the sequence, how does the “soluble on expression in E. coli” value read?
The value was “not soluble”.

For “EVKLEESGGGLVQPGGSMKLSCATSGFTFSDAWMDWVRQSPEKGLEWVAEIRNKANNHATYYAESVKGRFTISRDDSKRRVYLQMNTLRAEDTGIYYCTGIYYHYPWFAYWGQGTLVTVSAEP”, which “soluble on expression in E. coli” value is on record?
Its value is “soluble”.

Which “soluble on expression in E. coli” value does the source give for “EVLVTGYQTLSKERSTGAFSKVSTEKLELKRMDNLSSMLEGQVAGYVNGQIRGVTTMNAVANPMVVIDGFPVENTTLDRIGQTTENMPDLNPEDIESVTVLKDAAAASIYGARAANGVIVITTKKAK” here?
The value was “not soluble”.

Which “soluble on expression in E. coli” value does the source give for “EVQLQQSGAELVRPGASVKLSCTASGFNIKDDFMHWVKQRPEQGLEWIGRIDPANDNTKYAPKFQDKATIIADTSSNTAYLQLSSLTSEDTAVYYCARREVYSYYSPLDVWGAGTTVTVPSGS” here?
Its value is “soluble”.

Which “soluble on expression in E. coli” value does the source give for “FASFSNFTLKYHEKRFQQYGYGLMLNDTNFPGGSSGSPLIGKDNKLNSIYFGVLEIYQSGSLARNDIGMSQILRTPQ” here?
The value was “not soluble”.

Which “soluble on expression in E. coli” value does the source give for “FKDFRLGINLNGVYAKNKILFWDEAPGTPEWQKSTGKPIDSGLYYEAIGIFKDQAAVDAYPHWAGARPGDIIFKDVNGDNVIDGNDRVRNDKSRTPRFTGGLNVDLGYKDFDLSFLLQGAMGGVFYQTTESGDFANFLKSFYDNRWTEENPDADFPRTYNRSNEYFINQQNTFWLHKTDYIRLKNIELGYTVPSIWSKKIGVEHLRVYINAYNLLTISPDMKDYDPENTSGSGYNYPLNKVINFGVNLTF” here?
Its value is “not soluble”.
